T1: EB2 protein (endogenous target of CDKL5 in mouse brain), Q8R001
T1 chain: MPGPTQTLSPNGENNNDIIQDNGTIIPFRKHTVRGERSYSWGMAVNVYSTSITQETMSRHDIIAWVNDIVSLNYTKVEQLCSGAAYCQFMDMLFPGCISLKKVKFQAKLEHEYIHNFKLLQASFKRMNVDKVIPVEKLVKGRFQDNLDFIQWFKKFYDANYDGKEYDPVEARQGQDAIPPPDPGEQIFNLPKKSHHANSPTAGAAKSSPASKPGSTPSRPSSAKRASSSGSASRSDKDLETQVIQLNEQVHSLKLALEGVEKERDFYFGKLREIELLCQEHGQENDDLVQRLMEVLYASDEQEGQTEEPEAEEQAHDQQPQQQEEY

B1: human CDKL5, isoform 1 (protein)
chain: MKIPNIGNVMNKFEILGVVGEGAYGVVLKCRHKETHEIVAIKKFKDSEENEEVKETTLRELKMLRTLKQENIVELKEAFRRRGKLYLVFEYVEKNMLELLEEMPNGVPPEKVKSYIYQLIKAIHWCHKNDIVHRDIKPENLLISHNDVLKLCDFGFARNLSEGNNANYTEYVATRWYRSPELLLGAPYGKSVDMWSVGCILGELSDGQPLFPGESEIDQLFTIQKVLGPLPSEQMKLFYSNPRFHGLRFPAVNHPQSLERRYLGILNSVLLDLMKNLLKLDPADRYLTEQCLNHPTFQTQRLLDRSPSRSAKRKPYHVESSTLSNRNQAGKSTALQSHHRSNSKDIQNLSVGLPRADEGLPANESFLNGNLAGASLSPLHTKTYQASSQPGSTSKDLTNNNIPHLLSPKEAKSKTEFDFNIDPKPSEGPGTKYLKSNSRSQQNRHSFMESSQSKAGTLQPNEKQSRHSYIDTIPQSSRSPSYRTKAKSHGALSDSKSVSNLSEARAQIAEPSTSRYFPSSCLDLNSPTSPTPTRHSDTRTLLSPSGRNNRNEGTLDSRRTTTRHSKTMEELKLPEHMDSSHSHSLSAPHESFSYGLGYTSPFSSQQRPHRHSMYVTRDKVRAKGLDGSLSIGQGMAARANSLQLLSPQPGEQLPPEMTVARSSVKETSREGTSSFHTRQKSEGGVYHDPHSDDGTAPKENRHLYNDPVPRRVGSFYRVPSPRPDNSFHENNVSTRVSSLPSESSSGTNHSKRQPAFDPWKSPENISHSEQLKEKEKQGFFRSMKKKKKKSQTVPNSDSPDLLTLQKSIHSASTPSSRPKEWRPEKISDLQTQSQPLKSLRKLLHLSSASNHPASSDPRFQPLTAQQTKNSFSEIRIHPLSQASGGSSNIRQEPAPKGRPALQLPGQMDPGWHVSSVTRSATEGPSYSEQLGAKSGPNGHPYNRTNRSRMPNLNDLKETAL
B2: human CDKL5, isoform 4 (protein)
chain: MKIPNIGNVMNKFEILGVVGEGAYGVVLKCRHKETHEIVAIKKFKDSEENEEVKETTLRELKMLRTLKQENIVELKEAFRRRGKLYLVFEYVEKNMLELLEEMPNGVPPEKVKSYIYQLIKAIHWCHKNDIVHRDIKPENLLISHNDVLKLCDFGFARNLSEGNNANYTEYVATRWYRSPELLLGAPYGKSVDMWSVGCILGELSDGQPLFPGESEIDQLFTIQKVLGPLPSEQMKLFYSNPRFHGLRFPAVNHPQSLERRYLGILNSVLLDLMKNLLKLDPADRYLTEQCLNHPTFQTQRLLDRSPSRNQAGKSTALQSHHRSNSKDIQNLSVGLPRADEGLPANESFLNGNLAGASLSPLHTKTYQASSQPGSTSKDLTNNNIPHLLSPKEAKSKTEFDFNIDPKPSEGPGTKYLKSNSRSQQNRHSFMESSQSKAGTLQPNEKQSRHSYIDTIPQSSRSPSYRTKAKSHGALSDSKSVSNLSEARAQIAEPSTSRYFPSSCLDLNSPTSPTPTRHSDTRTLLSPSGRNNRNEGTLDSRRTTTRHSKTMEELKLPEHMDSSHSHSLSAPHESFSYGLGYTSPFSSQQRPHRHSMYVTRDKVRAKGLDGSLSIGQGMAARANSLQLLSPQPGEQLPPEMTVARSSVKETSREGTSSFHTRQKSEGGVYHDPHSDDGTAPKENRHLYNDPVPRRVGSFYRVPSPRPDNSFHENNVSTRVSSLPSESSSGTNHSKRQPAFDPWKSPENISHSEQLKEKEKQGFFRSMKKKKKKSQTTDSTNGENPSIKKSLFPLFNSKNHLKHSSSLKKLPVVTPPMVPNSDSPDLLTLQKSIHSASTPSSRPKEWRPEKISDLQTQSQPLKSLRKLLHLSSASNHPASSDPRFQPLTAQQTKNSFSEIRIHPLSQASGGSSNIRQEPAPKGRPALQLPGQMDPGWHVSSVTRSATEGPSYSEQLGAKSGPNGHPYNRTNRSRMPNLNDLKETAL
B3: human CDKL5, isoform 3 (protein)
chain: MKIPNIGNVMNKFEILGVVGEGAYGVVLKCRHKETHEIVAIKKFKDSEENEEVKETTLRELKMLRTLKQENIVELKEAFRRRGKLYLVFEYVEKNMLELLEEMPNGVPPEKVKSYIYQLIKAIHWCHKNDIVHRDIKPENLLISHNDVLKLCDFGFARNLSEGNNANYTEYVATRWYRSPELLLGAPYGKSVDMWSVGCILGELSDGQPLFPGESEIDQLFTIQKVLGPLPSEQMKLFYSNPRFHGLRFPAVNHPQSLERRYLGILNSVLLDLMKNLLKLDPADRYLTEQCLNHPTFQTQRLLDRSPSRNQAGKSTALQSHHRSNSKDIQNLSVGLPRADEGLPANESFLNGNLAGASLSPLHTKTYQASSQPGSTSKDLTNNNIPHLLSPKEAKSKTEFDFNIDPKPSEGPGTKYLKSNSRSQQNRHSFMESSQSKAGTLQPNEKQSRHSYIDTIPQSSRSPSYRTKAKSHGALSDSKSVSNLSEARAQIAEPSTSRYFPSSCLDLNSPTSPTPTRHSDTRTLLSPSGRNNRNEGTLDSRRTTTRHSKTMEELKLPEHMDSSHSHSLSAPHESFSYGLGYTSPFSSQQRPHRHSMYVTRDKVRAKGLDGSLSIGQGMAARANSLQLLSPQPGEQLPPEMTVARSSVKETSREGTSSFHTRQKSEGGVYHDPHSDDGTAPKENRHLYNDPVPRRVGSFYRVPSPRPDNSFHENNVSTRVSSLPSESSSGTNHSKRQPAFDPWKSPENISHSEQLKEKEKQGFFRSMKKKKKKSQTVPNSDSPDLLTLQKSIHSASTPSSRPKEWRPEKISDLQTQSQPLKSLRKLLHLSSASNHPASSDPRFQPLTAQQTKNSFSEIRIHPLSQASGGSSNIRQEPAPKGRPALQLPGQMDPGWHVSSVTRSATEGPSYSEQLGAKSGPNGHPYNRTNRSRMPNLNDLKETAL
B4: human CDKL5, isoform 2 (protein)
chain: MKIPNIGNVMNKFEILGVVGEGAYGVVLKCRHKETHEIVAIKKFKDSEENEEVKETTLRELKMLRTLKQENIVELKEAFRRRGKLYLVFEYVEKNMLELLEEMPNGVPPEKVKSYIYQLIKAIHWCHKNDIVHRDIKPENLLISHNDVLKLCDFGFARNLSEGNNANYTEYVATRWYRSPELLLGAPYGKSVDMWSVGCILGELSDGQPLFPGESEIDQLFTIQKVLGPLPSEQMKLFYSNPRFHGLRFPAVNHPQSLERRYLGILNSVLLDLMKNLLKLDPADRYLTEQCLNHPTFQTQRLLDRSPSRSAKRKPYHVESSTLSNRNQAGKSTALQSHHRSNSKDIQNLSVGLPRADEGLPANESFLNGNLAGASLSPLHTKTYQASSQPGSTSKDLTNNNIPHLLSPKEAKSKTEFDFNIDPKPSEGPGTKYLKSNSRSQQNRHSFMESSQSKAGTLQPNEKQSRHSYIDTIPQSSRSPSYRTKAKSHGALSDSKSVSNLSEARAQIAEPSTSRYFPSSCLDLNSPTSPTPTRHSDTRTLLSPSGRNNRNEGTLDSRRTTTRHSKTMEELKLPEHMDSSHSHSLSAPHESFSYGLGYTSPFSSQQRPHRHSMYVTRDKVRAKGLDGSLSIGQGMAARANSLQLLSPQPGEQLPPEMTVARSSVKETSREGTSSFHTRQKSEGGVYHDPHSDDGTAPKENRHLYNDPVPRRVGSFYRVPSPRPDNSFHENNVSTRVSSLPSESSSGTNHSKRQPAFDPWKSPENISHSEQLKEKEKQGFFRSMKKKKKKSQTTDSTNGENPSIKKSLFPLFNSKNHLKHSSSLKKLPVVTPPMVPNSDSPDLLTLQKSIHSASTPSSRPKEWRPEKISDLQTQSQPLKSLRKLLHLSSASNHPASSDPRFQPLTAQQTKNSFSEIRIHPLSQASGGSSNIRQEPAPKGRPALQLPGQMDPGWHVSSVTRSATEGPSYSEQLGAKSGPNGHPYNRTNRSRMPNLNDLKETAL

Molecular target: T1, EB2 protein (endogenous target of CDKL5 …)

Protein | EB2 phosphorylation (Cdkl5(D471fs) mouse brain, 3 months after AAV) | EB2 phosphorylation (Cdkl5(R59X) mouse brain, 3 months after AAV) | ability to phosphorylate EB2 (mouse brain) | kinase activity, blotting for phosphorylated EB2 (Cdkl5-ko mouse brain, 3 months after AAV) | phosphorylation of EB2 (Western blot of mouse brain, pS222EB2) | EB2 phosphorylation levels (Western blot, Cdkl5-ko mouse brain)
B1 | showed robust hCDKL5 protein expression and EB2 phosphorylation 3 months later | showed robust hCDKL5 protein expression and EB2 phosphorylation 3 months later | All tested plasmids expressed well in mouse brain, showing minor differences in ability to phosphorylate EB2 (measurement of CDKL5 kinase activity) | human CDKL5 showed robust kinase activity when blotting for phosphorylated EB2 protein | CDKL5 was fully active, as determined by its ability to phosphorylate its endogenous target EB2 protein | 
B2 |  |  | All tested plasmids expressed well in mouse brain, showing minor differences in ability to phosphorylate EB2 (measurement of CDKL5 kinase activity) |  |  | by isoforms three or 4 slightly lower compared to isoform 1
B3 |  |  | All tested plasmids expressed well in mouse brain, showing minor differences in ability to phosphorylate EB2 (measurement of CDKL5 kinase activity) |  |  | by isoforms three or 4 slightly lower compared to isoform 1
B4 |  |  | All tested plasmids expressed well in mouse brain, showing minor differences in ability to phosphorylate EB2 (measurement of CDKL5 kinase activity) |  |  | EB2 phosphorylation levels generated by isoform 2 were slightly higher
